Experimental data reported in article PMC5973842.

Legend:
eNP WT (Ebola virus) = test: fluorescence polarization
eNP-2 (Ebola virus) = test: fluorescence polarization
eNP-3 (Ebola virus) = test: fluorescence polarization
[1] = target: FITC-labeled eVP35 NPBP (Ebola virus); test: fluorescence polarisation

Row | Substance | Kd (eNP WT (Ebola virus)) | Kd (eNP-2 (Ebola virus)) | Kd (eNP-3 (Ebola virus)) | Kd [1]
1 | 20 nt ssRNA | 0.013 µM | 0.068 µM | 0.015 µM | –
2 | Ebola virus nucleoprotein, full-length wildtype construct (from UniProt P18272 1-739) (natural protein) | – | – | – | 0.0106 µM
3 | eNP-2 (Ebola virus nucleoprotein N-terminal construct lacking the first 24 residues) (domain or fragment) | – | – | – | 0.0019 µM
4 | eNP-3 (Ebola virus nucleoprotein N-terminal construct that includes the first 24 residues) (domain or fragment) | – | – | – | 0.0128 µM
